Consider 2 molecules from paper PMC5342210, “Staphylococcal protein Ecb impairs complement receptor-1 mediated recognition of opsonized bacteria” (PLoS ONE, 2017).

Assay [1] has as its target C3b (UniProt P01024). Kind of assay: radioligand binding; C3b (5 ug/ml) coated on microtiter wells, blocked with 0.5% BSA; 125I-sCR1 (30,000 cpm) mixed with the unlabelled protein (0-0.33 uM) in 1/2 PBS with 0.1% BSA; 60 min, 37 C; bound radioactivity counted.
Target sequence in this assay (P01024 23-667, chain 1 of 2): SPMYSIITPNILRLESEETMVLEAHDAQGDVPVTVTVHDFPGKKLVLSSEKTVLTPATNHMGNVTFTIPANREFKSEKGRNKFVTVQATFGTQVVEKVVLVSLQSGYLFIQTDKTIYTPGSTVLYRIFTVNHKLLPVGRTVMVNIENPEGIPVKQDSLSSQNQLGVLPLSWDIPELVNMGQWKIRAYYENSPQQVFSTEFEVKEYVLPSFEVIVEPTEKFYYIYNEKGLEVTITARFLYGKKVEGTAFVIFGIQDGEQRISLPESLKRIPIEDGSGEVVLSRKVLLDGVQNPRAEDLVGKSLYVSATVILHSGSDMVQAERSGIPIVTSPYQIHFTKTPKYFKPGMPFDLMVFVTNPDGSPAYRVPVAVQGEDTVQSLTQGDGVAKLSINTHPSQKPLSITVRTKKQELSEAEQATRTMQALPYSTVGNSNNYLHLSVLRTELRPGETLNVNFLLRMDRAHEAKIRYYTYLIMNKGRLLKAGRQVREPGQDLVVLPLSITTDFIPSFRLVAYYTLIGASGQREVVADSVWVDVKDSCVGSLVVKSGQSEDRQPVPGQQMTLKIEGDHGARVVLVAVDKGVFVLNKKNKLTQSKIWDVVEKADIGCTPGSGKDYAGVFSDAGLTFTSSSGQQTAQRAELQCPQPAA
Target sequence in this assay (P01024 749-1663, chain 2 of 2): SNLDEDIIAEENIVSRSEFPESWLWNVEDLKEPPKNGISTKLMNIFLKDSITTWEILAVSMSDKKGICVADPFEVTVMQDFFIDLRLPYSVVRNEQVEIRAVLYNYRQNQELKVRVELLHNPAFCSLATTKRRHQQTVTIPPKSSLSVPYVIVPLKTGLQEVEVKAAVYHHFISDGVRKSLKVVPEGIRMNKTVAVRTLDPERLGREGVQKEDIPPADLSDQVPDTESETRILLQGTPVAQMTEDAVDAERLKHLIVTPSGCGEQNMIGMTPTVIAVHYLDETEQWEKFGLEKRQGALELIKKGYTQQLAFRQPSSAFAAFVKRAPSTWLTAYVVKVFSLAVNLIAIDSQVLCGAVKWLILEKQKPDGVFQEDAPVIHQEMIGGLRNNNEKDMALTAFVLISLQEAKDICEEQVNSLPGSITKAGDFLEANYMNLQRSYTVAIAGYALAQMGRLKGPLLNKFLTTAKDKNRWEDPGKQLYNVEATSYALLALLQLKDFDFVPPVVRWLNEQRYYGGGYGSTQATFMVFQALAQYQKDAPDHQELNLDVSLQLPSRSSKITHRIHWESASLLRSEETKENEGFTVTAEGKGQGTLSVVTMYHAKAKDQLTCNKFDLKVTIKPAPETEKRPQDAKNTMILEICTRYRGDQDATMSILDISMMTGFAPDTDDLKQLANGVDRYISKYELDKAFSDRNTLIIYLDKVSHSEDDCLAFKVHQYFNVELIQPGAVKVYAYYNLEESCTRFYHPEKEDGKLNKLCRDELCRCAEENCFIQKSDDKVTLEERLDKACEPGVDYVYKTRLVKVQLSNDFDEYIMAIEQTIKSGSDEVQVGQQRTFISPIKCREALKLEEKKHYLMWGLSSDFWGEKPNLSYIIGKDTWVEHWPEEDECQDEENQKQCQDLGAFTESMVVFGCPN
Assay [2] has as its target T1, C3b (UniProt P01024).
T1 construct: complement C3 beta chain, as it stands in C3b; alpha'-chain of C3b, the cut product of the C3 alpha chain (here made with trypsin); the C3b was detected with anti-human C3 and anti-human C3c antibodies; also called solid-phase C3b; source: C3 purified from plasma; C3b prepared from C3 using trypsin
The assay is described as above. The conditions noted are these: both partners purified.
T1 sequence (P01024 23-667, chain 1 of 2): as the sequence (P01024 23-667, chain 1 of 2) above
T1 sequence (P01024 749-1663, chain 2 of 2): as the sequence (P01024 749-1663, chain 2 of 2) above

Turning to “Extracellular complement binding protein (Ecb) (natural protein)”, the percent inhibition of sCR1 binding to C3b with C3b [1] is 80%.

B1: Factor H (FH) (natural protein)
chain: EDCNELPPRRNTEILTGSWSDQTYPEGTQAIYKCRPGYRSLGNVIMVCRKGEWVALNPLRKCQKRPCGHPGDTPFGTFTLTGGNVFEYGVKAVYTCNEGYQLLGEINYRECDTDGWTNDIPICEVVKCLPVTAPENGKIVSSAMEPDREYHFGQAVRFVCNSGYKIEGDEEMHCSDDGFWSKEKPKCVEISCKSPDVINGSPISQKIIYKENERFQYKCNMGYEYSERGDAVCTESGWRPLPSCEEKSCDNPYIPNGDYSPLRIKHRTGDEITYQCRNGFYPATRGNTAKCTSTGWIPAPRCTLKPCDYPDIKHGGLYHENMRRPYFPVAVGKYYSYYCDEHFETPSGSYWDHIHCTQDGWSPAVPCLRKCYFPYLENGYNQNYGRKFVQGKSIDVACHPGYALPKAQTTVTCMENGWSPTPRCIRVKTCSKSSIDIENGFISESQYTYALKEKAKYQCKLGYVTADGETSGSITCGKDGWSAQPTCIKSCDIPVFMNARTKNDFTWFKLNDTLDYECHDGYESNTGSTTGSIVCGYNGWSDLPICYERECELPKIDVHLVPDRKKDQYKVGEVLKFSCKPGFTIVGPNSVQCYHFGLSPDLPICKEQVQSCGPPPELLNGNVKEKTKEEYGHSEVVEYYCNPRFLMKGPNKIQCVDGEWTTLPVCIVEESTCGDIPELEHGWAQLSSPPYYYGDSVEFNCSESFTMIGHRSITCIHGVWTQLPQCVAIDKLKKCKSSNLIILEEHLKNKKEFDHNSNIRYRCRGKEGWIHTVCINGRWDPEVNCSMAQIQLCPPPPQIPNSHNMTTTLNYRDGEKVSVLCQENYLIQEGEEITCKDGRWQSIPLCVEKIPCSQPPQIEHGTINSSRSSQESYAHGTKLSYTCEGGFRISEENETTCYMGKWSSPPQCEGLPCKSPPEISHGVVAHMSDSYQYGEEVTYKCFEGFGIDGPAIAKCLGEKWSHPPSCIKTDCLSLPSFENAIPMGEKKDVYKAGEQVTYTCATYYKMDGASNVTCINSRWTGRPTCRDTSCVNPPTVQNAYIVSRQMSKYPSGERVRYQCRSPYEMFGDEEVMCLNGNWTEPPQCKDSTGKCGPPPPIDNGDITSFPLSVYAPASSVEYQCQNLYQLEGNKRITCRNGQWSEPPKCLHPCVISREIMENYNIALRWTAKQKLYSRTGESVEFVCKRGYRLSSRSHTLRTTCWDGKLEYPTCAKR
notes: complement factor H, plasma regulator; source: purified from plasma
In the case of B1, the binding result in the assay with C3b [2] is on record as “binds”.
